In patent EP4592317A1 (ABlink Biotech Co., Ltd., dated 2025):
“And” between values parts separate entries of the source, which are not always exact repeats. Equal entries are not always repeated.

T1: Mouse 4-1BB extracellular region recombinant protein (his-tag) (mouse, UniProt P20334 24-187)
T1 construct: extracellular domain; also called Mouse4-1BB, his-tag; not shown: his-tag
T1 sequence (looked up): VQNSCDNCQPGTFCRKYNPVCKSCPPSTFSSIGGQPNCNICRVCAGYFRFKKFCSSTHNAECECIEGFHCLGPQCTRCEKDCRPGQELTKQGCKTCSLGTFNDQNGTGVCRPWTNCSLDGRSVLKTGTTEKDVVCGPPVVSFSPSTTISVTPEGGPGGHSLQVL

B1: 137-16 VHH-hFc recombinant antibody (Fc fusion)
chain: EVQLVESGGGLVQAGASLTLSCVISGRTFSSYAMGWYRQAPGKERAFVGTITWNNDIIYSDSVKGRFTISTDDGKNTMYLQMNNLKPEDTAVYYCAAYSVPYGDFCTLNYDLMDYWGKGTLVTVSS
notes: VHH fragment inserted into vector pFclG with human IgG1 Fc tag, expressed in HEK293F; Preparation had non-specific bands, purity >70%; also called CD137-16; not shown: human IgG1 Fc tag of the eukaryotic expression vector pFclG
B2: 137-12 VHH-hFc recombinant antibody (Fc fusion)
chain: QVQLVESGGGLVHPGGSLRLSCAASGFTLDDSAIGWFRQAPGKEREGVSCRSRSGYMTKYADSVKGRFTISRYNANNTMYLQMNSLKPEDTAVYYCATTRRGYCSGYETKGVDYWGQGIQVTVSS
notes: VHH fragment inserted into vector pFclG with human IgG1 Fc tag, expressed in HEK293F; not shown: human IgG1 Fc tag of the eukaryotic expression vector pFclG
B3: 137-36 VHH-hFc recombinant antibody (Fc fusion)
chain: QVQLVESGGGLVQTGGSLTLSCVASGRRFEAYTIGWLRQAPGDLREGVGCIFGGTTFTGYDDSVKGRFTISRDTAKNTVYLRMNNLTSEDTATYYCAAEGRPGQIKGQHGCLTPSWYNYKGQGTQVTVSS
notes: as for B2
B4: 137-39 VHH-hFc recombinant antibody (Fc fusion)
chain: QVQLVESGGGLVHVGESLTLSCVISGGSSNLYGIGWYRQAPGQERKLVAVLHNEHTTKYLDSVKGRFFVSGDNAKNTLYLHMNNVKVEDTAVYYCNSASGTLAGTGYFASVGPWGQGTLVTVSS
notes: VHH fragment inserted into vector pFclG with human IgG1 Fc tag, expressed in HEK293F; Preparation had non-specific bands, purity about 30%; not shown: human IgG1 Fc tag of the eukaryotic expression vector pFclG
B5: 137-7 VHH-hFc recombinant antibody (Fc fusion)
chain: QVQLVESGGGLVQPGGSLRLSCAASGFTLDSYAIAWFRQAPGKEREGVSCITSSGGSTNYADSVKGRFTISRDGAKNTVYLQLNSLKPEDTAIYYCAAFHRATCVILGEYDYWGQGTQVTVSS
notes: VHH fragment inserted into vector pFclG with human IgG1 Fc tag, expressed in HEK293F; also called CD137-7; not shown: human IgG1 Fc tag of the eukaryotic expression vector pFclG
B6: 137-1 VHH-hFc recombinant antibody (Fc fusion)
chain: QVQLVESGGGLVQPGGSLRLSCVASGFVFSTVTMGWGRQVPGKEFEWVSGVSSEGITDYADSVKGRFTISRDNAKNTVYLEMNSLKSEDTAEYYCLIGGRWSFGTWGQGTQVTVSS
notes: also called CD137-1; not shown: human IgG1 Fc tag of the eukaryotic expression vector pFclG

molecular target: T2, Human 4-1BB extracellular domain recombinant protein (his-tag) (human, UniProt Q07011 24-186); assay: ELISA, coated human 4-1BB-his 200 ng/well; antibody 1.11 µg/ml
T2 construct: extracellular domain; also called Human4-1BB, his-tag; human 4-1BB extracellular region recombinant protein; not shown: his-tag

| Binder | absorbance at 450 nm |
| --- | --- |
| B1 | 3.52 |
| B2 | 0.376 |
| B3 | 0.414 |
| B4 | 0.62 |

molecular target: T2, Human 4-1BB extracellular domain …; assay: ELISA, coated human 4-1BB-his 200 ng/well

| Binder | EC50 |
| --- | --- |
| B1 | 0.536 µg/mL and 6.7 nM |
| B5 | 0.09 µg/mL and 1.12 nM |
| B2 | 6.3e-05 µg/mL and 0.001 nM |
| B3 | 0.001 µg/mL and 0.011 nM |
| B6 | 0.138 µg/mL and 1.73 nM |
| B4 | 6.04 µg/mL and 75.6 nM |

molecular target: T3, Monkey 4-1BB extracellular region recombinant protein (his-tag) (monkey); assay: ELISA, coated monkey 4-1BB-his 200 ng/well; antibody 0 µg/ml (background well)
T3 construct: extracellular domain; also called Monkey4-1BB, his-tag

| Binder | absorbance at 450 nm |
| --- | --- |
| B1 | 0.043 |
| B5 | 0.055 |
| B2 | 0.058 |
| B3 | 0.041 |
| B6 | 0.077 |
| B4 | 0.041 |

molecular target: T1, Mouse 4-1BB extracellular region …; assay: ELISA, coated mouse 4-1BB-his 200 ng/well; antibody 10.0 µg/ml

| Binder | absorbance at 450 nm |
| --- | --- |
| B5 | 0.284 |
| B6 | 0.31 |

molecular target: T3, Monkey 4-1BB extracellular region …; assay: ELISA, coated monkey 4-1BB-his 200 ng/well; antibody 0.041 µg/ml

| Binder | absorbance at 450 nm |
| --- | --- |
| B1 | 0.581 |
| B5 | 0.794 |
| B2 | 0.37 |
| B3 | 0.354 |
| B6 | 0.971 |
| B4 | 0.387 |

molecular target: T3, Monkey 4-1BB extracellular region …; assay: ELISA, coated monkey 4-1BB-his 200 ng/well; antibody 10.0 µg/ml

| Binder | absorbance at 450 nm |
| --- | --- |
| B2 | 1.07 |
| B3 | 1.91 |
| B4 | 0.405 |

molecular target: T1, Mouse 4-1BB extracellular region …; assay: ELISA, coated mouse 4-1BB-his 200 ng/well; antibody 0.12 µg/ml

| Binder | absorbance at 450 nm |
| --- | --- |
| B5 | 0.166 |
| B6 | 0.184 |

molecular target: T2, Human 4-1BB extracellular domain …; assay: ELISA, coated human 4-1BB-his 200 ng/well; antibody 10.0 µg/ml

| Binder | absorbance at 450 nm |
| --- | --- |
| B2 | 0.432 |
| B3 | 0.48 |
| B4 | 1.45 |

molecular target: T2, Human 4-1BB extracellular domain …; assay: ELISA, coated human 4-1BB-his 200 ng/well; antibody 3.33 µg/ml

| Binder | absorbance at 450 nm |
| --- | --- |
| B2 | 0.433 |
| B3 | 0.454 |
| B4 | 1 |

molecular target: T3, Monkey 4-1BB extracellular region …; assay: ELISA, coated monkey 4-1BB-his 200 ng/well; antibody 3.33 µg/ml

| Binder | absorbance at 450 nm |
| --- | --- |
| B2 | 0.679 |
| B3 | 0.879 |
| B4 | 0.342 |

molecular target: T2, Human 4-1BB extracellular domain …; assay: ELISA, coated human 4-1BB-his 200 ng/well; antibody 0.014 µg/ml

| Binder | absorbance at 450 nm |
| --- | --- |
| B1 | 0.41 |
| B5 | 0.589 |
| B2 | 0.395 |
| B3 | 0.413 |
| B6 | 0.612 |
| B4 | 0.521 |

molecular target: T1, Mouse 4-1BB extracellular region …; assay: ELISA, coated mouse 4-1BB-his 200 ng/well; antibody 0.041 µg/ml

| Binder | absorbance at 450 nm |
| --- | --- |
| B5 | 0.18 |
| B6 | 0.202 |

molecular target: T1, Mouse 4-1BB extracellular region …; assay: ELISA, coated mouse 4-1BB-his 200 ng/well; antibody 1.11 µg/ml

| Binder | absorbance at 450 nm |
| --- | --- |
| B5 | 0.191 |
| B6 | 0.207 |

molecular target: T1, Mouse 4-1BB extracellular region …; assay: ELISA, coated mouse 4-1BB-his 200 ng/well; antibody 3.33 µg/ml

| Binder | absorbance at 450 nm |
| --- | --- |
| B5 | 0.218 |
| B6 | 0.231 |

molecular target: T3, Monkey 4-1BB extracellular region …; assay: ELISA, coated monkey 4-1BB-his 200 ng/well; antibody 0.12 µg/ml

| Binder | absorbance at 450 nm |
| --- | --- |
| B1 | 1.17 |
| B5 | 1.54 |
| B2 | 0.376 |
| B3 | 0.372 |
| B6 | 1.85 |
| B4 | 0.306 |

molecular target: T3, Monkey 4-1BB extracellular region …; assay: ELISA, coated monkey 4-1BB-his 200 ng/well; antibody 0.014 µg/ml

| Binder | absorbance at 450 nm |
| --- | --- |
| B1 | 0.447 |
| B5 | 0.581 |
| B2 | 0.385 |
| B3 | 0.333 |
| B6 | 0.621 |
| B4 | 0.292 |

molecular target: T1, Mouse 4-1BB extracellular region …; assay: ELISA, coated mouse 4-1BB his-tag 200 ng/well

| Binder | binding result |
| --- | --- |
| B5 | no binding (tested: 0.014-10 µg/mL) |
| B6 | no binding (tested: 0.014-10 µg/mL) |

molecular target: T1, Mouse 4-1BB extracellular region …; assay: ELISA, coated mouse 4-1BB-his 200 ng/well; antibody 0 µg/ml (background well)

| Binder | absorbance at 450 nm |
| --- | --- |
| B5 | 0.209 |
| B6 | 0.24 |

molecular target: T2, Human 4-1BB extracellular domain …; assay: ELISA, coated human 4-1BB-his 200 ng/well; antibody 0 µg/ml (background well)

| Binder | absorbance at 450 nm |
| --- | --- |
| B1 | 0.096 |
| B5 | 0.081 |
| B2 | 0.087 |
| B3 | 0.112 |
| B6 | 0.093 |
| B4 | 0.128 |

molecular target: T2, Human 4-1BB extracellular domain …; assay: ELISA, coated human 4-1BB-his 200 ng/well; antibody 0.37 µg/ml

| Binder | absorbance at 450 nm |
| --- | --- |
| B1 | 1.58 |
| B2 | 0.341 |
| B3 | 0.347 |
| B6 | 3.97 |
| B4 | 0.458 |

molecular target: T1, Mouse 4-1BB extracellular region …; assay: ELISA, coated mouse 4-1BB-his 200 ng/well; antibody 0.37 µg/ml

| Binder | absorbance at 450 nm |
| --- | --- |
| B5 | 0.201 |
| B6 | 0.269 |

molecular target: T3, Monkey 4-1BB extracellular region …; assay: ELISA, coated monkey 4-1BB-his 200 ng/well

| Binder | EC50 |
| --- | --- |
| B1 | 0.234 µg/mL and 2.93 nM |
| B5 | 0.17 µg/mL and 2.12 nM |
| B2 | 10.3 µg/mL and 128 nM |
| B3 | 51.9 µg/mL and 649 nM |
| B6 | 0.113 µg/mL and 1.41 nM |
| B4 | 0.001 µg/mL and 0.012 nM |

molecular target: T2, Human 4-1BB extracellular domain …; assay: SPR (Biacore 8K), VHH-hFc captured on Protein A chip, human 4-1BB-his as analyte, 25°C, 1:1 fit

| Binder | Kd [nM] | koff [s⁻¹] | kon [M⁻¹ s⁻¹] |
| --- | --- | --- | --- |
| B1 | 33.3 | 0.00274 | 82200 |
| B5 | 38 | 0.0298 | 783000 |
| B6 | 3.91 | 0.00916 | 2.34e+06 |

molecular target: T3, Monkey 4-1BB extracellular region …; assay: ELISA, coated monkey 4-1BB-his 200 ng/well; antibody 1.11 µg/ml

| Binder | absorbance at 450 nm |
| --- | --- |
| B2 | 0.423 |
| B3 | 0.456 |
| B4 | 0.286 |

molecular target: T2, Human 4-1BB extracellular domain …; assay: ELISA, coated human 4-1BB-his 200 ng/well; antibody 0.041 µg/ml

| Binder | absorbance at 450 nm |
| --- | --- |
| B1 | 0.419 |
| B5 | 0.963 |
| B2 | 0.355 |
| B3 | 0.372 |
| B6 | 0.754 |
| B4 | 0.477 |

molecular target: T1, Mouse 4-1BB extracellular region …; assay: ELISA, coated mouse 4-1BB-his 200 ng/well; antibody 0.014 µg/ml

| Binder | absorbance at 450 nm |
| --- | --- |
| B5 | 0.187 |
| B6 | 0.199 |

molecular target: T2, Human 4-1BB extracellular domain …; assay: ELISA, coated human 4-1BB-his 200 ng/well; antibody 0.12 µg/ml

| Binder | absorbance at 450 nm |
| --- | --- |
| B1 | 0.704 |
| B5 | 2.37 |
| B2 | 0.334 |
| B3 | 0.383 |
| B6 | 1.5 |
| B4 | 0.461 |

molecular target: T3, Monkey 4-1BB extracellular region …; assay: ELISA, coated monkey 4-1BB-his 200 ng/well; antibody 0.37 µg/ml

| Binder | absorbance at 450 nm |
| --- | --- |
| B1 | 2.79 |
| B5 | 3.19 |
| B2 | 0.343 |
| B3 | 0.276 |
| B6 | 3.97 |
| B4 | 0.251 |
